Results from PMC3925748.

Biological target: FUS (full-length recombinant protein; tag not told for these experiments) (UniProt P35637)
Test: cross-linking

“FUS (full-length recombinant protein; tag not told for these experiments) (from UniProt P35637 1-526) (natural protein)” was tested, and the stoichiometry N was less than 5.
